Results as given in the DeepSol protein solubility set.

experiment: soluble on expression in E. coli; label from the status in PepcDB or PDB records

Row | Sequence | soluble on expression in E. coli
1 | MSQILNVTLITETFTPEINGVANTLGRLCDGLRLRGHRVELVRPRQSDEINSGAADDLMLCRGWPIPGYPGLQWGQSSMHKLLRRWQRRRPDVLYIATEGPLGLSALRAARRLGIAVISGFHTNFPQYTQQYGMGFITRLLTHYLRWFHNRSRVTLVPSVSQKVELERRGFERIELLSRGVDSQLFNPSRCSQALRESWGLQTGDIGVIHVGRLAPEKNLGLLKTGFEALKSSYPQRTIKLIVVGDGPQRSELEQQIPDAIFCGTLRGEVLATHYASADMFLFPSLTETFGNVVLEALASGLGVVAYDEAAAGQHIRHGHNGALAMPGDETAFVDAARWLLEDSENLRRVRLNARQHASRQGWTAIIDQFERQLRDACPSESSKTLRQTSDKTIRPVSSMPLDLEHHHHHH | not soluble
2 | MSQKRQTKFQNGKSKTSENSSAKREKGMVVNSKEISDAVGQSKFVLENLRHYTVHPNLAQYYKPLKATALQKFLAQNRKNTSFMLKVTQYDQDKTLLIMTNNPPPCSITQQDKESASKYFSKELLLKVMESHHQHKPTENLWLPRMPQKKKLRSKLKPIFPLILSDDPTSKREQWFRFSTDNDFKSEGKYSKVYALRTQKKMYPQLTFAPVHERDMRKDASKKSASERPISKVIREPLTLASLLEDMPTRTAPGESAFRNGRAPQWIIKKATVIG | soluble
3 | MSQLDLLNIVHRPRRLRRTAALRNLVQENTLTVNDLVFPLFVMPGTNAVEEVSSMPGSFRFTIDRAVEECKELYDLGIQGIDLFGIPEQKTEDGSEAYNDNGILQQAIRAIKKAVPELCIMTDVALDPFTPFGHDGLVKDGIILNDETVEVLQKMAVSHAEAGADFVSPSDMMDGRIGAIREALDETDHSDVGILSYAAKYASSFYGPFRDALHSAPQFGDKSTYQMNPANTEEAMKEVELDIVEGADIVMVKPGLAYLDIVWRTKERFDVPVAIYHVSGEYAMVKAAAAKGWIDEDRVMMESLLCMKRAGADIIFTYYAKEAAKKLR | soluble
4 | MSQLVLDLKCLKDKIATNYDIHNNVYGGNGMEPNIIHPSKRFRIVVRLVDFLFCKSDEEFIKGFFCQMIVRNLHCLNSTNGAEEMRLYMSERLFSAHKDDLRLINGQVLDVRIGVWYGIHQSPPIFEIIDFKILSRNDVRDFCEFVKSPLGEKFLNISNS | not soluble
5 | MSQPYSAVADATGKAYVDIRVCDLLVQQGNMPKGLDSDFQIDGLYVVLRCQEDVRRTSCLWSTAPGACATELQSAAMQLGAAAGAYEAQSDDALVWNEMFRFVVPPALPLSTPAISPRAPHSPPSADGGDPQGGFCAPYTPPLPLSGSASGVAGGLHDIPGGIALPMSTAASGGMRAAGSSGFPVPYTPQPSSLAISTPPLHSAAAQKQPSGGGNGARATEAVASHASLFYPTIELELWRSAPLSENLLGRYKYHVPMELMQGGYALSNLDAVVERVVLLRTKDAPSIMGNLYGWSGHRLSLRLRVQAVGLAPLMAAWSPQQGSEATMTAASTIGSAAYPAPFPTGMLGNTVTGAPPYVAAGVYGAPLGTLNPVLVNLLAPLGVPTGGSGAGQLAPTVMMSMPGGMGGDNLHKPGQPPFFSMFPPASEAPADVGGKMFHPHLPGVLPATPQSSGQGILGDGDLTWQSSTTQPTVYPPYRLPR | not soluble
6 | MSQQVIIFDTTLRDGEQALQASLSVKEKLQIALALERMGVDVMEVGFPVSSPGDFESVQTIARQVKNSRVCALARCVEKDIDVAAESLKVAEAFRIHTFIATSPMHIATKLRSTLDEVIERAIYMVKRARNYTDDVEFSCEDAGRTPIADLARVVEAAINAGATTINIPDTVGYTMPFEFAGIISGLYERVPNIDKAIISVHTHDDLGLAVGNSLAAVHAGARQVEGAMNGIGERAGNCSLEEVIMAIKVRKDILNVHTAINHQEIWRTSQLVSQICNMPIPANKAIVGSGAFAHSSGIHQDGVLKNRENYEIMTPESIGLNQIQLNLTSRSGRAAVKHRMDEMGYKESEYNLDNLYDAFLKLADKKGQVFDYDLEALAFIGKQQEEPEHFRLDYFSVQSGSNDIATAAVKLACGEEVKAEAANGNGPVDAVYQAINRITDYNVELVKYSLTAKGHGKDALGQVDIVANYNGRRFHGVGLATDIVESSAKAMVHVLNNIWRATEVEKELQRKAQHNENNKETV | not soluble
7 | MSQRGLEALLRPKSIAVIGASMKPNRAGYLMMRNLLAGGFNGPVLPVTPAWKAVLGVLAWPDIASLPFTPDLAVLCTNASRNLALLEELGEKGCKTCIILSAPASQHEDLRACALRHNMRLLGPNSLGLLAPWQGLNASFSPVPIKRGKLAFISQSAAVSNTILDWAQQREMGFSYFIALGDSLDIDVDELLDYLARDSKTSAILLYLEQLSDARRFVSAARSASRNKPILVIKSGRSPAAQRLLNTTAGMDPAWDAAIQRAGLLRVQDTHELFSAVETLSHMRPLRGDRLMIISNGAAPAALALDALWSRNGKLATLSEETCQKLRDALPGHVAISNPLDLRDDASSEHYVKTLDILLHSQDFDALMVIHSPSAAAPATEIAQVLIEAVKHHPRSKYVSLLTNWCGEHSSQEARRLFSEAGLPTYRTPEGTITAFMHMVEYRRNQKQLRETPALPSNLTSNTAKAHLLLQQAIAEGATSLDTHEVQPILQSYGMNTLPTWIASDSTEAVHIAEQIGYPVALKLRSPDIPHKSEVQGVMLYLRTANEVQQAANAIFDRVKMTWPQARVHGLLVQSMANRAGAQELRVVVEHDPVFGPLIMLGEGGVEWRPEDQAVVALPPLNMNLARYLVIQGIKSKKIRARSALRPLDVAGLSQLLVQVSNLIVDCPEIQRLDIHPLLASGSEFTALDVTLDIAPFEGDNESRLAVRPYPHQLEEWVELKNGERCLFRPILPEDEPQLQQFISRVTKEDLYYRYFSEINEFTHEDLANMTQIDYDREMAFVAVRRIDQTEEILGVTRAISDPDNIDAEFAVLVRSDLKGLGLGRRLMEKLITYTRDHGLQRLNGITMPNNRGMVALARKLGFNVDIQLEEGIVGLTLNLAQREES | not soluble
8 | MSQTVNIVGAGLAGSEAAYQLAQRGIKVNLIEMRPVKQTPAHHTDKFAELVCSNSLRGNALTNGVGVLKEEMRRLDSLIISAADKARVPAGGALAVDRHDFSGYITETLRNHPNVTVINEEINSIPEGYTIIATGPLTTENLAKEIVDITGKDQLYFYDAAAPIIEKESIDMDKVYLKSRYDKGEAAYLNCPMTEEEFNRFYDAVLEAEVAPTNEFEKEKYFEGCMPFEVMAERGRKTLLFGPMKPVGLEDPKTGKRPFAVVQLRQDDAAGTLYNIVGFQTHLKWGAQKEVIRLIPGLENVDIVRYGVMHRNTFINSPDVLNEKYELIKEDRIQFAGQMTGVEGYVESAASGLVAGINLAHKLLDKGEVIFPRETMIGSMAYYISHAKNEKNFQPMNANFGLLPSLEKRIKDKKERYEAQANRALEYLENYKKTLLEHHHHHH | soluble
9 | MSQVQFSHNPLFCIDIIKTYKPDFTPRVAFILGSGLGALADQIENAVAISYEKLPGFPVSTVHGHAGELVLGHLQGVPVVCMKGRGHFYEGRGMTIMTDAIRTFKLLGCELLFCTNAAGSLRPEVGAGSLVALKDHINTMPGTPMVGLNDDRFGERFFSLANAYDAEYRALLQKVAKEEGFPLTEGVFVSYPGPNFETAAEIRMMQIIGGDVVGMSVVPEVISARHCDLKVVAVSAITNMAEGLSDVKLSHAQTLAAAELSKQNFINLICGFLRKIA | soluble
10 | MSRFLISSFILIAFVLQFGEGSIAVQEVKDGEKVQIELFKGAKAIQRSVDAGEQIFHFEGENKGVFVDANGKAIDSSNYEENNGHLVIKKFTKADVGSYSEYPTKIIKTKTDHGFSGVAAPVLKLSLQ | soluble
11 | MSRPTIIINDLDAERIDILLEQPAYAGLPIADALNAELDRAQMCSPEEMPHDVVTMNSRVKFRNLSDGEVRVRTLVYPAKMTDSNTQLSVMAPVGAALLGLRVGDSIHWELPGGVATHLEVLELEYQPEAAGDYLL | soluble
12 | MSRQRLGKSMIKANSWSSNLNAYRILQEPQSLTEEPPPIQTICPVQPESMAPPEHHNHRHLVTQEENRGRHLVGNPMRRTRSDVGAHGLTPHQPLLTRSKSDHGLERVATPLAFEVQSVGSEQTASSAEVMTAAGRRHSLLTDYQAAIARPLDLDRVLAAVKLRAAAEIYCKKNNLARLSPRPPRTSAGNQRLDALVNRPVDELIAEVQAAPRKFSRTQLTDVAQRHLLAALNIDIDQYKKGVHKAGLYEGLHSVAGRLVSVAAAAVSAGVSEVPGVSKTVTKTVKILSHQLPSSVVNPALTGGLRSVTDVMESFKRVGGLPVLSPQIDKSPDMGKIVKAAREMRGQLDEAVGHFARAHKSDPQALPRLVDAFLALHGVADRQYRRRIGLNRTQTYGKGWGMAVNGVAAIGTVVSTTVPVVGQVAGPAILASTIPLQWGAGYLDERRNKHRYNLRANTKWGDFLKDNAANIHFKDLTVEHISESKLRQSFLTQPEVQIAAIREVYEDTIGELMRRRLEMQKDIDVQREAGRPMRALALKQLRELDAEIDVTKMHADQFESFNMDRWSAIPEDSVIGRCLDDLDNLQKANRRARLRKPGEGAQIVQRYVQAFQGGVSTGTTLPVVDAVASIDSFHVHDSQGHDHGLQPAPLAVAAGTGAAGGAVFTGATGEVRMSKADNKKIMTQLRVDPEVYTADAEHWRFRAGNRDVDLRTSAGYKQHAHTRWDELALVAQALKHGLTSGPVGLKNLAVAKVELRQARASLQSALDALAASGLPHRTPDSARAPTISSMKDQLYDYSEVRRHLGV | not soluble
13 | MSRTWIRNPLAIFTANGLDAAGGLVVEDGRIVELLGAGQQPAQPCASQFDASRHVVLPGLVNTHHHFYQTLTRAWAPVVNQPLFPWLKTLYPVWARLTPEKLELATKVALAELLLSGCTTAADHHYLFPGGLEQAIDVQAGVVEELGMRAMLTRGSMSLGEKDGGLPPQQTVQEAETILADSERLIARYHQRGDGARVQIALAPCSPFSVTPEIMRASAEVAARHDVRLHTHLAETLDEEDFCLQRFGLRTVDYLDSVGWLGPRTWLAHGIHFNAEEIRRLGEAGTGICHCPSSNMRLASGICPTVELEAAGAPIGLGVDGSASNDASNMILEARQALYLQRLRYGAERITPELALGWATRGSARLLGRSDIGELAPGKQADLALFKLDELRFSGSHDPLSALLLCAADRADRVMVGGAWRVVDGAVEGLDLAALIARHRAAASALIAG | not soluble
14 | MSRYCSQCGKSRKACICQWIVPLASGVELIILQHTSEAHRPLGTARILNLSLKNCTCLIGEDFSDDAQLNALLTDEAYQHFILYPSEQSQCLSDIACTESERTRKTRLILLDGTWKKAYKMWQLSTNLHTLTTVKLPEDLQGHYTIRKAPSDNSLSTVEAGFYALSLLEPDNDFSPLLNAFDRMIEFQIAQMPPGVFEKNYLNKLEHHHHHH | not soluble
15 | MSSAKLFTPLKVGAITATNRVFMAPLTRLRSIEPGDIPTPLMAEYYRQRASAGLIISEATQISAQAKGYAGAPGLHSDEQIAAWKKITQGVHAQGGHMAVQLWHTGRISHASLQPGGQAPVAPSAINAGTRTSLRDENGQAIRVETSTPRALDTHEIPGIVNDFRQAIANAREAGFDLVELHSAHGYLLHQFLSPSSNHRTDRYGGGVENRARLVLEVVDAGIKEWGADRIGIRLSPVGTFQNVDNGPNEEADALYLIEALGKRGIAYLHMSEPDWAGGEPYSDAFREKVRARFHGPIIGAGAYTPEKAEDLIEKGLIDAVAFGRDYIANPDLVARLQRKAELNPQRPESFYGGGAEGYTDYPTL | not soluble
16 | MSSALLRAAYAYDRLRAHPPEVAGQIATAMASAVHPKGEEPVFLELGVGTGRIALPLIARGYRYIALDADAAMLEVFRQKIAGVDRKVQVVQADARAIPLPDESVHGVIVVHLWHLVPDWPKVLAEAIRVLKPGGALLEGWDQAEASPEWTLQERWRAFAAEEGFPVERGLHAKRLKEVEEALRRLGLKPRTREVARWREERTPREALEALSERLYSFTQGLPEPVHARVMERLWAWAEAELGDLDRPFPVEKRFLLRVSRLG | soluble
